The results in this text go back to US20090163594A1, “Triple Assay System for Identifying Substrate Selectivity of Gamma Secretase Inhibitors” (ELAN PHARMACEUTICALS, INC., priority 2007, published 2009).

For series [1], the system named is AICD-GVP nuclear staining in COS-7 cells. Kind of series: Immunostaining of transfected COS-7 cells. The format is cell-based. The conditions noted are these: DAPT 5 μM, FIG. 5F. The protocol:
Immunostaining: Wild type or transiently transfected COS-7 cells (ATCC) were fixed at room temperature with 2% paraformaldehyde in PBS for 20 min and subsequently permeabilized with 0.2% Triton X-100 in PBS for 10 min. […] All staining was visualized on a Bio-Rad MRC 1024ES confocal microscope (Bio-Rad) and captured with a coupled CCD camera.

Series [2] deals with T1, gamma secretase, gamma cleavage (secreted Aβ) (Homo sapiens, UniProt P49768).
T1 construct: endogenous in cells; host or cells: HEK 293, transiently transfected with substrate plasmids
Kind of series: Aβ ELISA and IP/Western blot of conditioned media, HEK cells transfected with C99GVP constructs. The format is cell-based. The conditions noted are these: for secreted Aβ (Ab40, Ab42, total): 5 μM, 24 h, C99GVP transfectants, FIG. 5D; for Aβ-lowering potency with C99GVP compared with native substrate APP: FIG. 5E; for drop of Aβ40: Aβ40 ELISA, FIG. 9C; for reduction in total Aβ: IP/Western blot, FIG. 9B; for effect on secreted Aβ / Aβ production: words. The arrangement: secreted Aβ42: unit not given here. How it is done:
AICD neo-epitope antibodies were raised against the peptide VMLKKKC (SEQ ID NO:39). […] (FIGS. 15 and 16). P Cell Culture and Transient Transfection: Human embryonic kidney 293 (HEK 293) cells (ATCC) were grown in Dulbecco's Modified Eagle Medium with High Glucose (DMEM, obtained from Gibco/Invitrogen, Cat #11960) supplemented with 10% fetal bovine serum (Hyclone, SV 30014.03) and 50 units/ml penicillin and streptomycin (37° C., 5% CO2). Cells were used at less than passage number 30. At the time of seeding, viability of cells was greater than 95% as determined using a Vi-Cell Analyzer (Beckman-Coulter). Confluence of cells on plates was kept at greater than 95% during all phases of the experiment as determined with a standard tissue culture inverted microscope. All transfections were carried out on 5×10^6 cells in 6-well tissue culture plates (Costar). […] FuGENE6 reagent (Roche Cat. #11-814443001) was used according to manufacturer's protocol for the transient transfection of adherent cells. Transfected cells were reseeded onto 12 well (2×10^6 cells) and/or 96-well (5×10^4 cells) plates (Costar) 16 h post-transfection; fresh media was added either with or without gamma secretase inhibitors. The cells and conditioned media were harvested 48 h post-transfection for analysis.
(§1) Inhibitor Treatment of Transfected HEK Cell: The transition state analogue gamma secretase inhibitor-L685,458 (Sigma) and the peptidomimetic inhibitor-DAPT (Dovey, H. F., et al., J Neurochem., 2001; 76:173-181) were dissolved in DMSO to make 20 mM stocks. Similarly, a number of Elan's series of sulfonamide inhibitors were prepared and used as described herein (see, also FIGS. 11-14). Inhibitors were added to cell cultures (e.g., HEK) at the indicated final concentration, and the treated cells were harvested 48 h post-transfection. The metallo-proteinase inhibitor TAPI-1 (Calbiochem) was used at a final concentration of 40 μM. The Aβ-degrading enzyme inhibitors, Bacitracin (Calbiochem) and phosphoramidon (Calbiochem) were used at final concentration of 1 mg/ml and 40 μM, respectively. All inhibitor experiments were performed in triplicate and repeated at least three times.
Immunoprecipitation (IP) and Western Blot Detection of Aβ: Total Aβ peptides in conditioned medium or cell lysate were immuno-precipitated at 4° C. overnight with 4 μg of the 2H3 antibody, followed by incubation with 50 μl of a 50% protein G-Sepharose (GE Healthcare) slurry for 1 hr and three washes in the same lysis buffer as described above in the Western Blot discussion. Proteins were eluted from the solid-phase immunoprecipitates in Laemmli sample buffer by heating at 70° C. for 5 min and resolved on 10-20% Tris-Tricine SDS-PAGE or the modified Tris-Tricine/8M urea gels (Qi-Takahara, Y., et al., J Neurosci. (2005; 25, 436-445). After transferring onto nitrocellulose membranes (Invitrogen), the membranes were heated to 98° C. for 5 min in PBS, immunostained with the 2H3 antibody and visualized with Super-signal West Pico chemiluminescent substrate (Pierce). Each experiment was repeated at least three times.
(§2) ELISAs used to quantify different Aβ species were performed using standard techniques as described above and in (Johnson-Wood, K., et al., Proc. Natl. Acad. Sci. U.S.A., 1997; 94: 1550-1555, incorporated by reference). The Aβ40 and Aβ42 peptides in the samples were captured onto 2G3 or 21F12 antibody coated plates, respectively, and detected with a biotinylated 2H3 antibody. The fluorescence signal generated from a streptavidin-alkaline phosphatase conjugate (Roche) was measured with a CytoFlour microplate reader (Applied Biosystems). Synthetic Aβ40 or Aβ42 peptides (Anaspec) were used to generate standard curves (FIG. 10). All measurements were done in triplicate.

Series [3] concerns the target T2, gamma secretase, AICD-GVP generated from C99-GVP (Homo sapiens, UniProt P49768).
T2 construct: endogenous in cells
The experiment in a line: Luciferase reporter gene assay, HEK293 cells transfected with C99GVP. Type of series: cell-based. Particulars: dose-dependent, FIG. 5C. How it is done:
as §1, with “All inhibitor experiments were performed in triplicate and repeated at least three times.” left out
Luciferase Reporter Gene Assay: Luciferase reporter assays were carried out 48 hr post-transfection. […] After adding 100 μl of luminescent substrate (Promega), the luciferase activity was measured with a MicroLumatPlus microplate luminometer (Berthold Technologies). The P-galactosidase activity was measured similarly, using a luminescent β-galactosidase substrate (BD Biosciences). […]
Luciferase Assay. […] Some residual luciferase activity remained in the presence of excess gamma secretase inhibitors, even though identical treatment completely abolished AICD production as measured by Western blot (FIG. 5B).
In general terms: In a reporter assay the amount or activity of a reporter protein is the signal.

Series [4] deals with T3, gamma secretase, APP γ and ε cleavage (Homo sapiens, UniProt P49768).
T3 construct: endogenous in cells; host or cells: 293 cells transfected with Fas-APPsw-DD
The experiment in a line: Aβ and AICD ELISA, Fas-APPsw-DD transfected 293 cells. The format is cell-based. How it is done:
as §2
An AICD sandwich ELISA was established based on capture of cell lysates with any of the AICD polyclonal or monoclonal antibodies discussed above, and reporting back with antibody directed at the extreme C-terminus of APP (e.g., 13G8, prepared in-house). Alternatively, luciferase-based reporter assays can be used to detect and quantify the presence of AICD and correlate those numbers to inhibitory potency of known or potential gamma secretase inhibitor compounds.
Polyclonal antibody AICD ELISA. HEK 293 cells were grown under standard conditions to ˜90% confluence. Cells were harvested, counted, and subsequently plated onto PDL-coated 60 mm dishes at 2×10^6 cells/dish in 5 mL media. […]

The test system of series [5] is C99GVP-G25S.
The test system of series [6] is C99GVP-K28S.
For series [7], the system named is C99GVP-S26L.
The test system of series [8] is C99GVP-SREBP1-gsnk.
In series [9] the test system is C99GVP-SLSS.
Series [10] concerns C99GVP-N27S.
[11] abbreviates: transient expression in HEK cells, ELISA.

As for `C[C@H](NC(=O)Cc1cc(F)cc(F)c1)C(=O)N[C@H](C(=O)OC(C)(C)C)c1ccccc1` [DAPT], the “nuclear staining of AICD-GVP” value in series [1] was “abolished”. Moreover, in series [2], the “secreted Aβ (Ab40, Ab42, total)” value was “block secreted Aβ”. The “Aβ-lowering potency with C99GVP compared with native substrate APP” value in series [2] (ELISA) was “equal Ab potency”. For the same molecule, the “luciferase reporter transactivation by AICD-GVP” value in series [3] was “block luciferase reporter transactivation”. Further, the “γ/ε selectivity = IC50 AICD/IC50 Aβ” value in [4] worked out at 0.7.

Turning to “C99GVP: 99 amino acid C-terminal fragment of APP with Gal4-VP16 domain inserted (SEQ ID NO:47)”, in series [2] (transient expression in HEK cells), the “Aβ42 fraction of the total Aβ” value came to 15.7±2.5%. In addition, in series [2] (setting [11]), the “secreted Aβ40” value is 210.8 ± 19.2 pM and the “secreted Aβ42” value stood at 39.1±6.4.

On to `CC(C)C[C@H](NC(=O)[C@H](Cc1ccccc1)C[C@@H](O)[C@H](Cc1ccccc1)NC(=O)OC(C)(C)C)C(=O)N[C@@H](Cc1ccccc1)C(N)=O` [L-685,458, reference compound], for which, in series [2], the “secreted Aβ (Ab40, Ab42, total)” value is reported as “block secreted Aβ”. Besides, in series [2] (ELISA), the “Aβ-lowering potency with C99GVP compared with native substrate APP” value is recorded as “equal Ab potency”. The “luciferase reporter transactivation by AICD-GVP” value in series [3] is reported as “block luciferase reporter transactivation”. Besides, the “γ/ε selectivity = IC50 AICD/IC50 Aβ” value in series [4] is 1.9.

In the case of gamma secretase, in series [5], the “secreted Aβ” value is given as “showed no obvious effect on secreted Aβ”. Besides, the “decrease in total Aβ and in Aβ40” value in [6] is “an even more substantial (˜90%) decrease in both measurements”. Further, in series [7], the “drop of Aβ40” value is 52.7±2.3% drop of Aβ40 and the “reduction in total Aβ” value was determined as 65.7±8.5% reduction in total Aβ. The “Aβ secretion (western blot and Aβ40 ELISA of conditioned media)” value in [8] was “also maintained normal Aβ secretion”. In addition, the “reduction in secreted Aβ” value in series [9] was “marked reduction (˜97%) in secreted Aβ”. Moreover, the “secreted Aβ” value in [10] is “showed no obvious effect on secreted Aβ”.

As for “S26L: C99GVP point mutant in the GSNK motif (SEQ ID NO:44) (LEDAEFRHDSGYEVHHQKLVFFAEDVGLNKGAIIGLMVGGVVIATVIVITLVML)”, in [2] (versus C99GVP control), the “drop of Aβ40” value worked out at 52.7±2.3% and the “reduction in total Aβ” value is recorded as 65.7±8.5%.

“G25S: C99GVP point mutant in the GSNK motif (SEQ ID NO:43) (LEDAEFRHDSGYEVHHQKLVFFAEDVSSNKGAIIGLMVGGVVIATVIVITLVML)”: the “effect on secreted Aβ / Aβ production” value in [2] (versus C99GVP control) is on record as “no obvious effect”.

“N27S: C99GVP point mutant in the GSNK motif (SEQ ID NO:45) (LEDAEFRHDSGYEVHHQKLVFFAEDVGSSKGAIIGLMVGGVVIATVIVITLVML)”: in series [2] (versus C99GVP control), the “effect on secreted Aβ / Aβ production” value is on record as “no obvious effect”.

“K28S: C99GVP point mutant in the GSNK motif (SEQ ID NO:46) (LEDAEFRHDSGYEVHHQKLVFFAEDVGSNSGAIIGLMVGGVVIATVIVITLVML)”: in series [2] (versus C99GVP control), the “drop of Aβ40” value was approximately 90% and the “reduction in total Aβ” value is approximately 90%.

B1: C99GVP-SLSS: C99GVP in which the GSNK motif is substituted with SLSS from APLP2 (SEQ ID NO:51) (protein)
chain: DAEFRHDSGYEVHHQKLVFFAEDVSLSSGAIIGLMVGGVVIATVIVITLVMLKKKKLLSSIEQACDICRLKKLKCSKEKPKCAKCLKNNWECRYSPKTKRSPLTRAHLTEVESRLERLEQLFLLIFPREDLDMILKMDSLQDIKALLTGLFVQDNVNKDAVTDRLASVETDMPLTLRQHRISATSSSEESSNKGQRQLTVSGIPGDLAPPTDVSLGDELHLDGEDVAMAHADALDDFDLDMLGDGDSPGPGFTPHDSAPYGALDMADFEFEQMFTDALGIDEYGGQYTSIHHGVVEVDAAVTPEERHLSKMQQNGYENPTYKFFEQMQN
With B1, the “reduction in secreted Aβ” value in [2] (versus C99GVP control, FIG. 9B and 9C) is recorded as approximately 97%.
